{"source": "patent US7078203", "about": "(UNIVERSITY OF NORTH CAROLINA AT CHAPEL HILL, dated 2006)", "binders": {"B1": {"name": "ScAPC11 fused to the GAL4 activation domain (other, S. cerevisiae, UniProt Q12157 1-165, looked up, not shown: large carriers)", "chain": "MKVKINEVHSVFAWSWHIPSTSDEDAANNDPIGNDEDEDVCGICRASYNGTCPSCKFPGDQCPLVIGLCHHNFHDHCIYRWLDTPTSKGLCPMCRQTFQLQKGLAINDAHVQKFVEIVSRRREEMIEEGVAEEFVDFDEPIRQNTDNPIGRQQVDTILDEDFLLR", "notes": "also called yeast APC11"}, "B2": {"name": "human CUL2 (endogenous in HeLa cells) (other, UniProt Q13617 1-745, looked up)", "chain": "MSLKPRVVDFDETWNKLLTTIKAVVMLEYVERATWNDRFSDIYALCVAYPEPLGERLYTETKIFLENHVRHLHKRVLESEEQVLVMYHRYWEEYSKGADYMDCLYRYLNTQFIKKNKLTEADLQYGYGGVDMNEPLMEIGELALDMWRKLMVEPLQAILIRMLLREIKNDRGGEDPNQKVIHGVINSFVHVEQYKKKFPLKFYQEIFESPFLTETGEYYKQEASNLLQESNCSQYMEKVLGRLKDEEIRCRKYLHPSSYTKVIHECQQRMVADHLQFLHAECHNIIRQEKKNDMANMYVLLRAVSTGLPHMIQELQNHIHDEGLRATSNLTQENMPTLFVESVLEVHGKFVQLINTVLNGDQHFMSALDKALTSVVNYREPKSVCKAPELLAKYCDNLLKKSAKGMTENEVEDRLTSFITVFKYIDDKDVFQKFYARMLAKRLIHGLSMSMDSEEAMINKLKQACGYEFTSKLHRMYTDMSVSADLNNKFNNFIKNQDTVIDLGISFQIYVLQAGAWPLTQAPSSTFAIPQELEKSVQMFELFYSQHFSGRKLTWLHYLCTGEVKMNYLGKPYVAMVTTYQMAVLLAFNNSETVSYKELQDSTQMNEKELTKTIKSLLDVKMINHDSEKEDIDAESSFSLNMNFSSKRTKFKITTSMQKDTPQEMEQTRSAVDEDRKMYLQAAIVRIMKARKVLRHNALIQEVISQSRARFNPSISMIKKCIEVLIDKQYIERSQASADEYSYVA", "notes": "also called cullin 2"}, "B3": {"name": "myc-epitope tagged mouse cullin 4A (other, UniProt Q3TCH7 1-759, looked up, not shown: small tags and cut ends)", "chain": "MADEGPRKGSVSALMGRTNGLTKPAALAGGPAKPGGTGGSRKLVIKNFRDRPRLPDNYTQDTWRKLHEAVKAIQSSTSIRYNLEELYQAVENLCSHKVSPTLYKQLRQVCEDHVQAQILPFREDSLDSVLFLKKINTCWQDHCRQMIMIRSIFLFLDRTYVLQNSMLPSIWDMGLELFRNHIISDRMVQSKTIDGILLLIGRERSGEAVDRSLLRSLLSMLSDLQVYKDSFELKFLEETNCLYAAEGQRLMQDREVPEYLNHVSKRLEEEADRVITYLDHSTQKPLIACVEKQLLGEHLTAILQKGLEHLLDENRVPDLTQMYQLFSRVKGGQHALLQHWSEYIKTFGTTIVINPEKDKDMVQDLLDFKDKVDHVVEVCFQRNERFINLMKESFETFINKRPNKPAELIAKHVDSKLRAGNKEATDEELERILDKIMILFRFIHGKDVFEAFYKKDLAKRLLVGKSASVDAEKSMLSKLKHECGAAFTSKLEGMFKDMELSKDIMVHFKQHMQNQSAPGPIDLTVNILTMGYWPTYTPMEVHLPPEMVRLQEVFKTFYLGKHSGRKLQWQTTLGHAVLKADFKEGKKEFQVSLFQTLVLLMFNEGDGFSFEEIKMATGIEDSELRRTLQSLACGKARVLIKSPKGKEVEDGDKFIFNADFKHKLFRIKINQIQMKETVEEQVSTTERVFQDRQYQIDAAIVRIMKMRKTLGHNLLVSELYNQLKFPVKPGDLKKRIESLIDRDYMERDKDSPNQYHYVA", "notes": "also called myc-mCUL4A"}, "B4": {"name": "full length human ROC2 fused to the Gal4 DNA activation domain (other, not shown: large carriers)", "chain": "MFSLKKWNPVAMWSWDVECDTCAICRVQVMDACLRCQAENKQEDCVVVWGECNHSFHNCCMSLWVKQNNRCPLCQQDWVVQRIGK", "notes": "Yeast two-hybrid prey"}, "B5": {"name": "HA tagged human ROC2 (other, not shown: small tags and cut ends)", "chain": "B4 chain", "notes": "Migrates as a doublet in transfected cells; also called HA-ROC2"}}, "key": {"[1]": {"target": "CDC53 fused to the Gal4 DNA binding domain (pGBT8-CDC53) (yeast; S. cerevisiae, UniProt P04386 1-147; Q12018 1-815)", "test": "yeast two-hybrid", "text": "(§1) The yeast genome contains four cullin members, CDC53, CUL-B (ORF YGR003w), CUL-C(ORF YJL047c) and APC2. Each gene was fused in-frame with the Gal4 DNA binding domain and co-transformed with ScROC1 or ScAPC11 fused in-frame with the GAL4 activation domain. ScAPC2 was self-activating as a bait and was fused in-framed with the GAL4 activation domain and tested with ScROC1 fused in-frame with the DNA binding domain."}, "[2]": {"target": "CUL-B (ORF YGR003w) fused to the Gal4 DNA binding domain (yeast; S. cerevisiae, UniProt P04386 1-147; P53202 1-744)", "test": "yeast two-hybrid", "text": "as §1"}, "[3]": {"target": "human ROC1 (untagged: in vitro translated or endogenous in HeLa and Saos-2 cells) (human, UniProt P62877 1-108)", "sequence (P62877 whole entry)": "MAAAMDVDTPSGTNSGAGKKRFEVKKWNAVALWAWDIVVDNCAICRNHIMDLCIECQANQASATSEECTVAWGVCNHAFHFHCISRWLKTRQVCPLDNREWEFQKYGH", "test": "anti-ROC1 immunopurification from HeLa lysate, microsequencing of co-precipitated 70 to 120 kDa proteins"}, "[4]": {"target": "T1, HA-epitope tagged human ROC1 (human, UniProt P62877 1-108)", "T1 construct": "Expressed by transfection in mammalian cells; tag written first because of the name HA-ROC1; also called HA-ROC1", "T1 sequence (P62877 whole entry)": "as above", "test": "co-immunoprecipitation with anti-HA from [35S]-methionine labelled transfected cells"}, "[5]": {"target": "T2, mouse APC2 fused to the Gal4 DNA-binding domain (yeast; mouse, UniProt P04386 1-147; Q8BZQ7 15-837, limits assumed)", "T2 construct": "also called GAL4BD-APC2", "test": "yeast two-hybrid, -LWH with 5 mM 3-AT"}, "[6]": {"target": "myc-epitope tagged APC2 (mouse, UniProt Q8BZQ7 15-837)", "sequence (Q8BZQ7 15-837)": "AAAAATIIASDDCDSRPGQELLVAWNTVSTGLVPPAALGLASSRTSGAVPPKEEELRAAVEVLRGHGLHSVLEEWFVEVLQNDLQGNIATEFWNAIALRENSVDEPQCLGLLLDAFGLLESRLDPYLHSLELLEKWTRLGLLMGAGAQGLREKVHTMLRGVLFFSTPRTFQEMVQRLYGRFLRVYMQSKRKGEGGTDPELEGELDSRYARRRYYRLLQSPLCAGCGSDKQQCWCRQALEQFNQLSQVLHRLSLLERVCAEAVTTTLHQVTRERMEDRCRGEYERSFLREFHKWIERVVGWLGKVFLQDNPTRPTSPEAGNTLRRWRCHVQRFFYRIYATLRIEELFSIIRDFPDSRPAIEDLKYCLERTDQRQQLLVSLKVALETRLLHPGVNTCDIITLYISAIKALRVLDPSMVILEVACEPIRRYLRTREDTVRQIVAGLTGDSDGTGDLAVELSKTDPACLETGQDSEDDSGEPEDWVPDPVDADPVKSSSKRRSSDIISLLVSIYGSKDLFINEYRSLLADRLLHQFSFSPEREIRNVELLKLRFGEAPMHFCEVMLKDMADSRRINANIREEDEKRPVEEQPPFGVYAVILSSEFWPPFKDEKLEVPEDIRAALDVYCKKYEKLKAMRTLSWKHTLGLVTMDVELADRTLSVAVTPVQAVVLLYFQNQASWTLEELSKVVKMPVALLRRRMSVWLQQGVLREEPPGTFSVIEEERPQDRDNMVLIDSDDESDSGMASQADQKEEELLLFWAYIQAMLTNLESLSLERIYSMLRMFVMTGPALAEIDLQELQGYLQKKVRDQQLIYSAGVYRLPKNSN", "test": "co-immunoprecipitation from transfected HeLa cells"}}, "data": [{"binder": "B1", "values": [{"measurement": "binding result", "setting": "[1]", "value": "no binding"}, {"measurement": "binding result", "setting": "[2]", "value": "no binding"}]}, {"binder": "B2", "values": [{"measurement": "binding result", "setting": "[3]", "value": "binds"}]}, {"binder": "B3", "values": [{"measurement": "binding result", "setting": "[4]", "value": "binds"}]}, {"binder": "B4", "values": [{"measurement": "binding result", "setting": "[5]", "value": "no binding"}]}, {"binder": "B5", "values": [{"measurement": "binding result", "setting": "[6]", "value": "no binding"}]}]}
